From US20240270857A1 (CHIA TAI TIANQING PHARMACEUTICAL GROUP, published 2024)

Tests used:
[1] = target: T1, human IL-36R overexpressed on 293T-hIL36R-NFκB cells (human, UniProt Q9HB29 20-575); experiment: FACS on 293T-hIL36R-NFκB cells, ratio of MFI to background MFI
T1 construct: Entry includes the signal peptide; also called IL1RL2; IL-1Rrp2
T1 sequence: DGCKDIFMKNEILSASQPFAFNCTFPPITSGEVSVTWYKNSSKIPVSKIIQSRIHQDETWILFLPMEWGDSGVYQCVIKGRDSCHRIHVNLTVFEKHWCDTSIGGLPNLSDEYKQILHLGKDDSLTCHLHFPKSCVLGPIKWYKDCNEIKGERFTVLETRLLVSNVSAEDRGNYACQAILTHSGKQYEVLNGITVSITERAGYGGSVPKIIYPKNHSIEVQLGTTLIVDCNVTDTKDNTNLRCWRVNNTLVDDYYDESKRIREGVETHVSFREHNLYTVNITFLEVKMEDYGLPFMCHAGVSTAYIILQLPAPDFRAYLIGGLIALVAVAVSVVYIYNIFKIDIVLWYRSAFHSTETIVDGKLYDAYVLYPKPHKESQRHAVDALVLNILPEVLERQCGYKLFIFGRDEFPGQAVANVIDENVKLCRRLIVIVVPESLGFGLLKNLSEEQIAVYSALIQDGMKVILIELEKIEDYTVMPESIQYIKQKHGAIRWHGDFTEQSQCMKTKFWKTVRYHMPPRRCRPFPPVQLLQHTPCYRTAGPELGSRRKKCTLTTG
Description: After the cells was washed with PBS, the cells were resuspended with 100 μL of PBS and then the fluorescence signal was detected using a flow cytometer (BD, Accuri C6). […] The ratio was the ratio of mean fluorescence intensity (MFI) of the experimental group/the background MFI, and the resulting data were analyzed using GraphPad Prism.
Affinity, binding and blocking assays for humanized antibodies hz72C1-1.1, hz72C1-1.2, hz72C1-1.3, hz72C1-2.1, hz72C1-2.2 and hz72C1-2.3 as well as hz84C4-1.1, hz84C4-1.2, hz84C4-1.3, hz84C4-1.4, hz84C4-1.5, hz84C4-2.1, hz84C4-2.2, hz84C4-2.3, hz84C4-2.4 and hz84C4-2.5 were performed according to the methods of Example 4, Example 5. Example 6, Example 7 and Example 8.

[2] = target: T2, CynoIL36R-ECD mFc recombinant protein (cynomolgus monkey); experiment: ELISA, plate coated with CynoIL36R-ECD mFc, HRP-protein A/G, OD450
T2 construct: Made in ExpiCHO, purified on Protein A; also called cynomolgus IL-36R extracellular region with mouse antibody heavy chain Fc
T2 chain: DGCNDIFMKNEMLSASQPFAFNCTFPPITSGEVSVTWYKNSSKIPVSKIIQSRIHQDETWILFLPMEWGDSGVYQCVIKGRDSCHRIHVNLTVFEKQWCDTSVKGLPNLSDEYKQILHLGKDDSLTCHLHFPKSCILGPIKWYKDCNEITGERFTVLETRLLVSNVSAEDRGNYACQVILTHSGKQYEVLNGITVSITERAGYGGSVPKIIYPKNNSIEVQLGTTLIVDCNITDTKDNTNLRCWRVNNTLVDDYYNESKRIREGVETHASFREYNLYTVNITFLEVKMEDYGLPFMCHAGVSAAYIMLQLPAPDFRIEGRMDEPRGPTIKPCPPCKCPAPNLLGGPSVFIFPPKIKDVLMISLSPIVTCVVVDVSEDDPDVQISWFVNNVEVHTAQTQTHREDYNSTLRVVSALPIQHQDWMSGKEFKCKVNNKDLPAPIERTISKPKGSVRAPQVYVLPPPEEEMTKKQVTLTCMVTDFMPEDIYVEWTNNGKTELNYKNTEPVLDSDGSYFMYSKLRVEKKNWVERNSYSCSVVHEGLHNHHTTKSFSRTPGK
Description: The binding activity of anti-IL-36R antibodies to IL-36R was analyzed by ELISA using human IL-1Rrp2/IL-1R6 protein, His Tag (ACROBiosystems, IL2-H52H6) and CynoIL36R-ECD mFc (for detection of chimeric and humanized antibodies), and hIL36R-ECD hFc and CynoIL36R-ECD hFc protein (for detection of hybridoma antibodies) as antigens. A 96-well plate (Costar, 9018) was coated with 2 μg/mL antigen at 100 μL/well and incubated overnight at 4° C. After the 96-well plate was washed with a washing buffer (PBS containing 0.05% v/v Tween 20), a blocking buffer (PBS containing 2% bovine serum albumin) was added for blocking at 37° C. for 2 h. After the 96-well plate was washed with the washing buffer, 100 μL of the gradient diluted anti-IL-36R antibody of the present disclosure or the reference antibody BI655130 (the initial concentration of the antibody was 66 nM, 4-fold gradient dilution) was added to each well, and the plate was incubated at room temperature for 1 h. After the 96-well plate was washed with the washing buffer, 100 μL of horseradish peroxidase-conjugated recombinant protein A/G (TheroScientific, 32490) was added to each well, and the plate was incubated at room temperature for 1 h. After the 96-well plate was washed with the washing buffer, 100 μL of a TMB solution (Thermo, 00-4201-56) was added to each well, and the plate was incubated at room temperature for 2 min. Finally, 100 μL of a stop solution (2 N H₂SO₄) was added to each well to stop the reaction. Absorbance was read at 450 nm using a microplate reader (PE, Envision), the resulting data was analyzed using GraphPad Prism, and EC₅₀ was calculated. Binding EC₅₀ of the chimeric anti-IL-36R antibodies to hIL-36R in an ELISA assay is shown in FIG. 1. and binding EC₅₀ of the chimeric anti-IL-36R antibodies to CynoIL-36R in an ELISA assay is shown in FIG. 2. The binding of BI655130 is shown as a control, and the binding of IgG4 is shown as a negative control.

Binder	EC50 [1] [nM]	EC50 [2] [nM]
BI655130 (antibody, human IgG1, kappa, L234A L235A, also called Spesolimab) heavy: not shown light: QIVLTQSPGTLSLSPGERATMTCTASSSVSSSYFHWYQQKPGQAPRLWIYRTSRLASGVPDRFSGSGSGTDFTLTISRLEPEDAATYYCHQFHRSPLTFGAGTKLEIKRTVAAPSVFIFPPSDEQLKSGTASVVCLLNNFYPREAKVQWKVDNALQSGNSQESVTEQDSKDSTYSLSSTLTLSKADYEKHKVYACEVTHQGLSSPVTKSFNRGEC	5.13	1.97
hz72C1-1.2 (antibody, human IgG4 S228P, kappa, Humanized, human IgG4 / kappa) heavy: not shown light: DIQMTQSPSSLSASVGDRVTITCRASSNVRYMYWYQQKPGKAPKLWIYLTSNLASGVPSRFSGSGSGTSYTLTISSLQPEDFATYYCQQFTTSPYTFGQGTKLEIKRTVAAPSVFIFPPSDEQLKSGTASVVCLLNNFYPREAKVQWKVDNALQSGNSQESVTEQDSKDSTYSLSSTLTLSKADYEKHKVYACEVTHQGLSSPVTKSFNRGEC	11.9	4.26
hz72C1-1.3 (antibody, human IgG4 S228P, kappa, Humanized, human IgG4 / kappa) heavy: not shown light: DIQMTQSPSSLSASVGDRVTITCRASSNVRYMYWYQQKPGKAPKLWIYLTSNLASGVPSRFSGSGSGTSYTLTISSLQPEDFATYYCQQFTTSPYTFGQGTKLEIKRTVAAPSVFIFPPSDEQLKSGTASVVCLLNNFYPREAKVQWKVDNALQSGNSQESVTEQDSKDSTYSLSSTLTLSKADYEKHKVYACEVTHQGLSSPVTKSFNRGEC	11.9	2.86
hz72C1-2.2 (antibody, human IgG4 S228P, kappa, Humanized, human IgG4 / kappa) heavy: not shown light: DIQMTQSPSSLSASVGDRVTITCRASSNVRYMYWYQQKPGKAPKLWIYLTSNLASGVPSRFSGSGSGTSYTLTISSLQPEDFATYYCQQYTTSPYTFGQGTKLEIKRTVAAPSVFIFPPSDEQLKSGTASVVCLLNNFYPREAKVQWKVDNALQSGNSQESVTEQDSKDSTYSLSSTLTLSKADYEKHKVYACEVTHQGLSSPVTKSFNRGEC	17.6	4.87
hz72C1-2.1 (antibody, human IgG4 S228P, kappa, Humanized, human IgG4 / kappa) heavy: not shown light: DIQMTQSPSSLSASVGDRVTITCRASSNVRYMYWYQQKPGKAPKLWIYLTSNLASGVPSRFSGSGSGTSYTLTISSLQPEDFATYYCQQYTTSPYTFGQGTKLEIKRTVAAPSVFIFPPSDEQLKSGTASVVCLLNNFYPREAKVQWKVDNALQSGNSQESVTEQDSKDSTYSLSSTLTLSKADYEKHKVYACEVTHQGLSSPVTKSFNRGEC	19.3	10.5
hz72C1-2.3 (antibody, human IgG4 S228P, kappa, Humanized, human IgG4 / kappa) heavy: not shown light: DIQMTQSPSSLSASVGDRVTITCRASSNVRYMYWYQQKPGKAPKLWIYLTSNLASGVPSRFSGSGSGTSYTLTISSLQPEDFATYYCQQYTTSPYTFGQGTKLEIKRTVAAPSVFIFPPSDEQLKSGTASVVCLLNNFYPREAKVQWKVDNALQSGNSQESVTEQDSKDSTYSLSSTLTLSKADYEKHKVYACEVTHQGLSSPVTKSFNRGEC	20.2	6.38
hz72C1-1.1 (antibody, human IgG4 S228P, kappa, Humanized, human IgG4 / kappa; also called humanized 72C1 antibody 1.1) heavy: not shown light: DIQMTQSPSSLSASVGDRVTITCRASSNVRYMYWYQQKPGKAPKLWIYLTSNLASGVPSRFSGSGSGTSYTLTISSLQPEDFATYYCQQFTTSPYTFGQGTKLEIKRTVAAPSVFIFPPSDEQLKSGTASVVCLLNNFYPREAKVQWKVDNALQSGNSQESVTEQDSKDSTYSLSSTLTLSKADYEKHKVYACEVTHQGLSSPVTKSFNRGEC	11.6	2.73
